Entries after “also recorded” stand apart in the source; their conditions may differ.
Tests used:
macaque Notum N141D = experiment: Neutralization of point mutated macaque Notum, TCF assay; format: cell-based
From the text: Similarly, the macaque residue at this position was point mutated to the human residue (N141D). […] However, these point mutants differed in their ability to be neutralized by SC2.D2.2 (FIG. 26).

HCT-116 cells = experiment: Cell survival/proliferation, CellTiterGlo, HCT-116; format: cell-based, human
Protocol: To determine whether Notum protein impacts cell proliferation and/or apoptosis of human colorectal cancer cells, HCT-116 cells or mouse lineage-depleted NTX tumor cells (i.e. human tumor cells) were plated as described below and exposed to recombinant hNotum (e.g. hNotum-His or hNotum-hFc) and anti-Notum antibodies. Cell numbers were then assessed 12-14 days later.
Cells were then incubated for 14 days at 37° C., 5% CO2 and 5% O2 and the number of viable cells was assessed using Promega's CellTiterGlo assay kit per the manufacturer's instructions. For the HCT-116 cell line (a commercially available colorectal tumor cell line), cells were plated at 2,000 cells per well in DMEM+1% FBS, followed 24-hours later by the addition of serum free DMEM containing recombinant human Notum in the presence or absence of monoclonal antibodies SC2.D2.2 or SC2.10B3. HCT-116 cells were then incubated for 12 days at 37° C., 5% CO2 and cell viability was assessed with Promega's CellTiterGlo assay kit. Higher readings are indicative of higher viable cell counts.

Notum = target: T1, Notum (Homo sapiens, UniProt Q6P988); experiment: Neutralization of human Notum activity in 293.TCF luciferase assay; format: cell-based; design: 8x-His; Strep-tag II; IgK signal peptide/leader of the pSEC-CAG vector (N); made in house; host or cells: HEK293T (adherent) / suspension 293 cells
T1 sequence (Q6P988 20-496): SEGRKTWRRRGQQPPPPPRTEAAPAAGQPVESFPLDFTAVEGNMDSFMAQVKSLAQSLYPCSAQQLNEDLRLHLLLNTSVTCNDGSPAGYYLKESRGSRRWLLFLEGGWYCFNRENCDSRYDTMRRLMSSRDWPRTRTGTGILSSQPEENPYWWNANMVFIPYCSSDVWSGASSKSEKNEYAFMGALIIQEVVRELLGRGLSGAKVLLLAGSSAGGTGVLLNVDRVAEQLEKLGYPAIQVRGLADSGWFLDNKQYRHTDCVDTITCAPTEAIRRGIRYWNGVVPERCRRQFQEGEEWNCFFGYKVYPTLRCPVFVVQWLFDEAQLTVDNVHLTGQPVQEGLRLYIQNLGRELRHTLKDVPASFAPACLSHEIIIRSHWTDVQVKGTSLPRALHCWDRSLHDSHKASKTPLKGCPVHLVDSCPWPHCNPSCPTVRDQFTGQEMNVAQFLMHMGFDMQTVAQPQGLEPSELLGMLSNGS
Protocol: Using the 293.TCF cells described above, supernatants from hybridomas and/or purified antibodies shown to bind Notum by ELISA assays (Example 9) were screened for their ability to neutralize hNotum-His or hNotum-Fc activity as follows. 2.5×10^4 293.TCF cells were plated per well of a 96-well tissue culture plate in 50 μL of serum-free medium. After 23 hours of serum starvation, 10 μL of DMEM+0.2% FBS containing various Notum proteins at various concentrations were mixed with either 15 μL of supernatant from the hybridoma, or 15 μL of purified antibody at various concentrations, and allowed to incubate for 5 minutes at room temperature. The 25 μL antibody:Notum mixture was then added to the 293.TCF cells. After 1 hour, 25 μL of Wnt3A or control L-cell CM were added to each well. Eighteen hours after addition of CM, 100 μL of One-Glo solution (ProMega Corp.) was added to each well. The contents of each well were then mixed thoroughly to lyse the cells, 100 μL of lysate transferred to black 96-well plates, and the luminescence read after 5 minutes. […]

[1] = target: T2, chimeric human/mouse Notum (Homo sapiens, UniProt Q6P988, A205S/A256S/E196D/E289D/E487K/H276R/H373G/H396Y/K251E/L360Q/L418F/L429M/L483M/M474V/N299S/P379Q/P480Q/Q248L/Q311K/R218K/R307Q/R361W/S193P/T277S/T284N/V280I/V301M/V434F/V452I/Y171H); experiment: Neutralization of chimeric Notum in 293.TCF assay; format: cell-based
T2 construct: human mature Notum protein (residues 19-144) fused to the mouse Notum (mouse residues 150-484); His tag; made in house
T2 sequence (Q6P988 with tags, fused parts or gaps Y171H/S193P/E196D/A205S/R218K/Q248L/K251E/A256S/H276R/T277S/V280I/T284N/E289D/N299S/V301M/R307Q/Q311K/L360Q/R361W/H373G/P379Q/H396Y/L418F/L429M/V434F/V452I/M474V/P480Q/L483M/E487K): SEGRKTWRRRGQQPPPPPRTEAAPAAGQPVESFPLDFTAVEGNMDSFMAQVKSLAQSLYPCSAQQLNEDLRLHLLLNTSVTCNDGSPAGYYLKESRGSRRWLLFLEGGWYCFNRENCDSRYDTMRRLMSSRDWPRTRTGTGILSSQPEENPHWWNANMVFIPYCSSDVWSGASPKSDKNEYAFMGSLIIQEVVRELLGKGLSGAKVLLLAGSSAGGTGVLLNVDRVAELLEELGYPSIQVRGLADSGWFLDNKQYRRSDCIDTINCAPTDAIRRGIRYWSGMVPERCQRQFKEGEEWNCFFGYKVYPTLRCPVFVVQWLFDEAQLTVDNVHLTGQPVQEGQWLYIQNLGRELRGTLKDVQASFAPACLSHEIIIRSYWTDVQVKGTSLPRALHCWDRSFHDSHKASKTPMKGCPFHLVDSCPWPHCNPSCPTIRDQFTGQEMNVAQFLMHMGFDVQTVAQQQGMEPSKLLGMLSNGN
From the text: To better understand the structural basis for the interaction of SC2.D2.2 with human Notum, a chimeric Notum protein was fabricated. This approach takes advantage of the fact that the orthologs are structurally related. To that end a chimeric Notum molecule composed of the N terminal of the human mature Notum protein (residues 19-144) fused to the mouse Notum (mouse residues 150-484) (genes both consistent with Example 7) was generated and expressed in a similar manner to that set forth in previous Examples. The BamHI restriction cleavage site in human Notum gene was used for construction of in-frame fusion Notum chimeric protein. An expression vector was then constructed containing the His tagged chimeric Notum sequence.
The chimeric human/mouse Notum protein described in Example 17 was placed into the 293.TCF assay. […] (Note that FIG. 1C would annotate the residue as D129, based upon numbering from the start of the mature Notum protein, whereas the D141 annotation is based upon the consideration of the wild-type human protein precursor).

B1: SC2.D2.2 (antibody, V domains shown)
VH: DVQLVESGGGLVQPGGSRKISCAASGFTFSSYGMHWVRQAPEKGLEWVAYISSSTVTTYYADTVKGRFTISRDNANNTLFLQMTSLRSEDTAMYYCSRQNWDGGYFDVWGAGTTVTVSS
VL: DIVLTQSLASLAVSLGQRATISCRASKSVSSSGYSYMHWYQQKPGQPPKLLIYLASNLESGVPARFSGSGSGTDFTLNIHPVEEEDAATYYCQHSRALPLTFGAGTKLELKR
notes: also called murine SC2.D2.2
For B1, the “neutralization of mutant Notum protein” value (macaque Notum N141D) was “now enabled SC2.D2.2 to neutralize the mutant protein”, the “effect on hNotum induced increase in cell numbers” value (HCT-116 cells) was “blocked” and the “inhibition of human Notum activity” value (Notum) was “acts in a concentration dependent manner to antagonize the effects of added hNotum-His; also recorded: can inhibit the activity of human Notum in a dose dependent fashion; also recorded: specifically inhibit the human version of Notum”. The “neutralization of chimeric Notum activity” value [1] was “can be neutralized”.
